Molecular target: murine PDL-1 (murine) (UniProt Q9EP73)
Test: bead based FACS of purified EVADER vectors with fluorescent-labelled antibody

Sequence of UniProt Q9EP73 (Q9EP73 19-290): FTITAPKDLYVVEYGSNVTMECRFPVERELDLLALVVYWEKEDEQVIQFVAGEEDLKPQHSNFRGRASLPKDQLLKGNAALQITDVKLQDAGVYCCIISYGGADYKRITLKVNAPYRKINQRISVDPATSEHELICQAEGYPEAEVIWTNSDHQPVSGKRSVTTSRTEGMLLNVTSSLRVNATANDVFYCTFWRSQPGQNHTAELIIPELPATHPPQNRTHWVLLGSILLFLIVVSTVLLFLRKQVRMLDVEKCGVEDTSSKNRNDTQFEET

Substance: anti-murine PDL-1 (anti-PDL-1-PE-A, Abcam catalog number ab213480) (antibody)
- percent of EVADER vector particles positive (level on the surface): 75.3%

From patent publication US20200338216A1
